Consider nine molecules from patent US20190100587A1 (COVAGEN, published 2019).

Residue numbers refer to the chain shown, from its start. In names and notes the source's numbering stands. Like-named read-outs stand apart in the source and are kept apart here.

Assay [1] addresses T1, His-tagged human FcγRI (R&D, carrier-free formulation) (human, UniProt P12314 16-288).
T1 construct: also called CD64; human FcγR1
The assay can be described thus: AlphaScreen competition on His-tagged FcγRI; competitor biotinylated B21M LALA IgG1. For orientation: Alpha assays give light when donor and acceptor beads are brought close together.

In assay [2] the target is T1, His-tagged human FcγRI (R&D, …). The assay can be described thus: AlphaScreen competition assay; titrated antibody competes with biotinylated B21M LALA IgG1 for His-tagged human FcγRI.
The target of assay [3] is T2, human recombinant FcγRI (Sino Biological) (human, UniProt P12314 16-288, limits assumed).
T2 construct: Amine-coupled to a BIAcore CM5 chip (1500 RU); also called CD64
The assay can be described thus: SPR (BIAcore), FcγRI on chip, steady-state model. (In general: In SPR one partner is held on a chip, and binding of the other changes the refractive index at the surface.)

Assay [4] concerns the target T1, His-tagged human FcγRI (R&D, …). The assay can be described thus: AlphaScreen competition on His-tagged FcγRI.
Assay [5] deals with T2, human recombinant FcγRI (Sino …). The assay can be described thus: SPR (BIAcore), FcγRI on chip, kinetic (koff/kon).
For assay [6], the target named is T3, human CD3 on CD3+ Jurkat cells (human).
T3 construct: whole, on cells
The assay can be described thus: flow cytometry on CD3+ Jurkat cells, bound antibody detected with anti-human IgG-Alexa488. For orientation: A flow cytometer gives signals particle by particle.

Assay [7] deals with T2, human recombinant FcγRI (Sino …). The assay can be described thus: SPR (BIAcore), FcγRI on chip, 1:1 Langmuir model.
The target of assay [8] is T4, human recombinant FcγRIIIA (158F; R&D Systems) (human, UniProt P08637 17-208).
T4 construct: Amine-coupled to a BIAcore CM5 chip (1400 RU); also called CD16A
The assay can be described thus: SPR (BIAcore), human FcγRIIIA (158F) amine-coupled on a CM5 chip, antibody injected.

Assay [9] has as its target T1, His-tagged human FcγRI (R&D, …). The assay can be described thus: AlphaScreen competition on His-tagged FcγRI; competitor biotinylated B21M LALA IgG1. The source holds these as a separate data set.
Assay [10] has as its target T4, human recombinant FcγRIIIA (158F; R&D …). The assay can be described thus: SPR (BIAcore), FcγRIIIA 158F on chip, kinetic (koff/kon).
Assay [11] has the same target. The assay can be described thus: SPR (BIAcore), FcγRIIIA 158F on chip, steady-state model.
In assay [12] the target is T5, His-tagged human FcγRIIB (R&D, carrier-free formulation) (human, UniProt P31994 46-217, limits assumed).
T5 construct: also called CD32B
T5 sequence (looked up): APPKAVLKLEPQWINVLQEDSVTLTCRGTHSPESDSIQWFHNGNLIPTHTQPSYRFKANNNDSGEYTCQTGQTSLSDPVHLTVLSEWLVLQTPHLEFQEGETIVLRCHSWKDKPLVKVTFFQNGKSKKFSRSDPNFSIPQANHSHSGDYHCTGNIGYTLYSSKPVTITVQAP
The assay can be described thus: AlphaScreen competition assay; titrated antibody competes with biotinylated B21M IgG1 for His-tagged human FcγRIIB.

Assay [13] has as its target T4, human recombinant FcγRIIIA (158F; R&D …). The assay can be described thus: SPR (BIAcore), FcγRIIIA 158F on chip, 1:1 Langmuir model.
The target of assay [14] is T1, His-tagged human FcγRI (R&D, …). The assay can be described thus: AlphaScreen competition assay; titrated antibody competes with biotinylated B21M LALA IgG1 for His-tagged human FcγRI. The source holds these as a separate data set.

B1: Anti-PD1 mAb DANAPA IgG1 (antibody)
heavy: QVQLQQSGAELVKPGASVKMSCKAFGYTFTTYPIEWMKQNHGKSLEWIGNFHPYNDDTKYNEKFKGKAKLTVEKSSTTVYLELSRLTSDDSAVYYCARENYGSHGGFVYWGQGTLVTVSAASTKGPSVFPLAPSSKSTSGGTAALGCLVKDYFPEPVTVSWNSGALTSGVHTFPAVLQSSGLYSLSSVVTVPSSSLGTQTYICNVNHKPSNTKVDKKVEPKSCDKTHTCPPCPAPELLGGPSVFLFPPKPKDTLMISRTPEVTCVVVAVSHEDPEVKFNWYVDGVEVHNAKTKPREEQYASTYRVVSVLTVLHQDWLNGKEYKCKVSNKALAAPIEKTISKAKGQPREPQVYTLPPSREEMTKNQVSLTCLVKGFYPSDIAVEWESNGQPENNYKTTPPVLDSDGSFFLYSKLTVDKSRWQQGNVFSCSVMHEALHNHYTQKSLSLSPGK
light: ENVLTQSPAIMSASPGEKVTMTCRASSSVISSYLHWYQQKSGASPKLWIYSTSNLASGVPDRFSGSGSGTSYSLTISSVEAEDAATYYCQQYNGYPLTFGAGTKLEIKRTVAAPSVFIFPPSDEQLKSGTASVVCLLNNFYPREAKVQWKVDNALQSGNSQESVTEQDSKDSTYSLSSTLTLSKADYEKHKVYACEVTHQGLSSPVTKSFNRGEC
notes: DANAPA IgG1 format; also called anti-PD1 antibody; PD-1 specific antibody
Regarding B1, in assay [1], the IC50 (usually the concentration at which inhibition is half-maximal) is not below 600 nM.

B2: mAb2 G1 C-LC DANAPA IgG1 (bispecific antibody)
heavy: EVQLVESGGGLVQPGGSLKLSCAASGFTFNTYAMNWVRQAPGKGLEWVARIRSKYNNYATYYADSVKDRFTISRDDSKNTAYLQMNSLKTEDTAVYYCVRHGNFGDSYVSWFAYWGQGTLVTVSSASTKGPSVFPLAPSSKSTSGGTAALGCLVKDYFPEPVTVSWNSGALTSGVHTFPAVLQSSGLYSLSSVVTVPSSSLGTQTYICNVNHKPSNTKVDKKVEPKSCDKTHTCPPCPAPELLGGPSVFLFPPKPKDTLMISRTPEVTCVVVAVSHEDPEVKFNWYVDGVEVHNAKTKPREEQYASTYRVVSVLTVLHQDWLNGKEYKCKVSNKALAAPIEKTISKAKGQPREPQVYTLPPSREEMTKNQVSLTCLVKGFYPSDIAVEWESNGQPENNYKTTPPVLDSDGSFFLYSKLTVDKSRWQQGNVFSCSVMHEALHNHYTQKSLSLSPGK
light: not shown
notes: also called CD3/CD33 bispecific FynomAb with Fynomer G1; FynomAb with the DANAPA IgG Fc
B2 gave an IC50 in [1] of 206 nM.

B3: mAb2 DANAPA IgG1 (antibody)
heavy: B2 heavy
light: QTVVTQEPSLTVSPGGTVTLTCRSSTGAVTTSNYANWVQQKPGQAPRGLIGGTNKRAPGTPARFSGSLLGGKAALTLSGVQPEDEAEYYCALWYSNLWVFGGGTKLTVLGQPKAAPSVTLFPPSSEELQANKATLVCLISDFYPGAVTVAWKADSSPVKAGVETTTPSKQSNNKYAASSYLSLTPEQWKSHRSYSCQVTHEGSTVEKTVAPTECS
notes: Humanized anti-CD3 antibody in DANAPA IgG1 format; also called anti-CD3 antibody mAb2; CD3-specific antibody mAb2
For B3, in assay [1], the IC50 was not below 600 nM.

B4: mAb2 D5 C-LC DANAPA IgG1 (bispecific antibody)
heavy: B2 heavy
light: not shown
notes: also called CD3/CD33 bispecific FynomAb with Fynomer D5; FynomAb with the DANAPA IgG Fc
Consider B4, for which the “IC50 (read off the curve)” value in assay [2] was approximately 200 nM. In [1], this molecule gave an IC50 of 800 nM.

B5: mAb1 DAPA IgG1 (antibody)
heavy: not shown
light: QVVLTQSPAIMSAFPGEKVTMTCSASSSVSYMNWYQQKSGTSPKRWIYDSSKLASGVPARFSGSGSGTSYSLTISSMETEDAATYYCQQWSRNPPTFGGGTKLQITRTVAAPSVFIFPPSDEQLKSGTASVVCLLNNFYPREAKVQWKVDNALQSGNSQESVTEQDSKDSTYSLSSTLTLSKADYEKHKVYACEVTHQGLSSPVTKSFNRGEC
As for B5, the Kd – broadly, a measure of binding affinity in units of concentration – in assay [3] amounted to 1190 nM. Moreover, in assay [4], the “fold stronger binding than mAb1 DANAPA IgG1” value was more than 37 fold. Moreover, the Kd in assay [5] worked out at 575 nM. Further, in [6], the EC50 (read off the curve) – broadly, the midpoint of the concentration-response curve – was approximately 0.1 nM. Further, in assay [7], the koff (in general, a measure of how fast the partners let go of each other) is 0.0595 s⁻¹ and the kon (commonly the rate constant with which the complex forms) stood at 103000 M⁻¹ s⁻¹. Besides, the binding result in [8] is on record as “no binding (tested: 2000 nM)”. Besides, in assay [9], the IC50 was found to be 17.7 nM and the “IC50 relative to IgG1” value was found to be 7.8 fold.

B6: mAb1 LALA IgG1 (antibody)
heavy: not shown
light: B5 light
notes: mAb1 with Fc mutations L234A, L235A (EU numbering)
As to B6, the Kd was found to be 1550 nM in assay [3], 7780 nM in assay [10] and 13800 nM in [11]. Further, the “fold stronger binding than mAb1 DANAPA IgG1” value in assay [4] is more than 37 fold. Besides, in assay [6], the “EC50 (read off the curve)” value is approximately 0.1 nM. Besides, the binding result in assay [12] is reported as “binds”. In assay [13], the koff turned out to be 0.111 s⁻¹. Also, in assay [13], the kon came to 14200 M⁻¹ s⁻¹. In addition, in assay [9], the IC50 turned out to be 27.1 nM. In addition, the “IC50 relative to IgG1” value in assay [9] was found to be 11.9 fold.

B7: mAb1 N297A IgG1 (antibody)
heavy: not shown
light: B5 light
notes: mAb1 with Fc mutation N297A (EU numbering)
On to B7, for which the Kd in assay [3] was 1510 nM. Further, in [4], the “fold stronger binding than mAb1 DANAPA IgG1” value is more than 37 fold. In assay [5], the Kd turned out to be 737 nM. The “EC50 (read off the curve)” value in [6] was approximately 0.1 nM. Also, in assay [7], the koff was determined as 0.112 s⁻¹ and the kon stood at 152000 M⁻¹ s⁻¹. The binding result in assay [8] was “no binding (tested: 2000 nM)”. In addition, in [9], the IC50 is 23.9 nM and the “IC50 relative to IgG1” value is 10.5 fold.

B8: mAb1 DNNDPG IgG1 (antibody)
heavy: QVQLQQSGAELARPGASVKMSCKASGYTFTRSTMHWVKQRPGQGLEWIGYINPSSAYTNYNQKFKDKATLTADKSSSTAYMQLSSLTSEDSAVYYCASPQVHYDYNGFPYWGQGTLVTVSAASTKGPSVFPLAPSSKSTSGGTAALGCLVKDYFPEPVTVSWNSGALTSGVHTFPAVLQSSGLYSLSSVVTVPSSSLGTQTYICNVNHKPSNTKVDKKVEPKSCDKTHTCPPCPAPELLGGPSVFLFPPKPKDTLMISRTPEVTCVVVNVSHEDPEVKFNWYVDGVEVHNAKTKPREEQYDSTYRVVSVLTVLHQDWLNGKEYKCKVSNKALGAPIEKTISKAKGQPREPQVYTLPPSREEMTKNQVSLTCLVKGFYPSDIAVEWESNGQPENNYKTTPPVLDSDGSFFLYSKLTVDKSRWQQGNVFSCSVMHEALHNHYTQKSLSLSPGK
light: B5 light
notes: mAb1 with D265N, N297D, P329G (EU numbering)
Turning to B8, in assay [14], the binding result was “binds”.

B9: mAb1 DENQPS IgG1 (antibody)
heavy: B8 heavy with N269E, D301Q, G333S
light: B5 light
notes: mAb1 with D265E, N297Q, P329S (EU numbering)
In the case of B9, the binding result in assay [14] is “binds”.
